Results as given in patent US20160272683A1 (Novo Nordisk, published 2016).
One block for each binder: values may come before it. Numbered stars: 1 amine (or outer) side, 2 acyl side, 3 side chain; on linkers, the order of the positions; unused ones are H or OH. Ends that are not written are not given here. * marks the point of attachment. C20 diacid = O=C(O)CCCCCCCCCCCCCCCCCCC(=O)*; C18 diacid = O=C(O)CCCCCCCCCCCCCCCCC(=O)*; γGlu = O=C(O)[C@H](CCC(=O)[*:2])N[*:1]

Biological target: T1, human amylin receptor (human calcitonin receptor + human RAMP3) (human) (UniProt P30988)
T1 sequence (looked up) 1: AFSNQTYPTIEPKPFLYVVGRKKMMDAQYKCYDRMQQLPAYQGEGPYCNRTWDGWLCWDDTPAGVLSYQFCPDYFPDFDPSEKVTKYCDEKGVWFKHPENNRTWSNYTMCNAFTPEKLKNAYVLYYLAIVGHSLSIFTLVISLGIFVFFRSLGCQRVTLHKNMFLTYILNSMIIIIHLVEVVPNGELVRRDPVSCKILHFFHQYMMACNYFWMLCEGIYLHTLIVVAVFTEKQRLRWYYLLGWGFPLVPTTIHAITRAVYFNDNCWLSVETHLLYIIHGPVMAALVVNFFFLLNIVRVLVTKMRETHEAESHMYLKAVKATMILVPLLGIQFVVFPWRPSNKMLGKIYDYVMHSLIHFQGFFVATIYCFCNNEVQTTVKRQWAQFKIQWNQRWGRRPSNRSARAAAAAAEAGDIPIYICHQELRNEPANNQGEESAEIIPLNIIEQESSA
T1 sequence (looked up) 2: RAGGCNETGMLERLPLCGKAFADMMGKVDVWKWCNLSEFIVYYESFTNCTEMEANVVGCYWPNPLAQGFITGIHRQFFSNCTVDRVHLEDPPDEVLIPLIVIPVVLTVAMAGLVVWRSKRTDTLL
Assay: whole-cell competition vs 125I-rat amylin (Assay Va)

Binder: EASELSTAALGRLSAELHELATLPRTETGSGSP-NH2 [[30S, 31G]mimylin]
- IC50: 0.469 nM

B1: [N-terminal(C20 diacid-gGlu), des1, 2L, 4Q, 8L, 9V, 15Q, 16R, 19R, 21Q, 23Y, 27Q, 30S, 31Q, 32T, 33Y]mimylin (peptide)
peptide: {C20 diacid-γGlu}-LSQLSTLVLGRLSQRLHRLQTYPRTQTGSQTY-NH2
SMILES: CC(C)C[C@H](NC(=O)CC[C@H](NC(=O)CCCCCCCCCCCCCCCCCCC(=O)O)C(=O)O)C(=O)N[C@@H](CO)C(=O)N[C@@H](CCC(N)=O)C(=O)N[C@@H](CC(C)C)C(=O)N[C@@H](CO)C(=O)N[C@H](C(=O)N[C@@H](CC(C)C)C(=O)N[C@H](C(=O)N[C@@H](CC(C)C)C(=O)NCC(=O)N[C@@H](CCCNC(=N)N)C(=O)N[C@@H](CC(C)C)C(=O)N[C@@H](CO)C(=O)N[C@@H](CCC(N)=O)C(=O)N[C@@H](CCCNC(=N)N)C(=O)N[C@@H](CC(C)C)C(=O)N[C@@H](Cc1c[nH]cn1)C(=O)N[C@@H](CCCNC(=N)N)C(=O)N[C@@H](CC(C)C)C(=O)N[C@@H](CCC(N)=O)C(=O)N[C@H](C(=O)N[C@@H](Cc1ccc(O)cc1)C(=O)N1CCC[C@H]1C(=O)N[C@@H](CCCNC(=N)N)C(=O)N[C@H](C(=O)N[C@@H](CCC(N)=O)C(=O)N[C@H](C(=O)NCC(=O)N[C@@H](CO)C(=O)N[C@@H](CCC(N)=O)C(=O)N[C@H](C(=O)N[C@@H](Cc1ccc(O)cc1)C(N)=O)[C@@H](C)O)[C@@H](C)O)[C@@H](C)O)[C@@H](C)O)C(C)C)[C@@H](C)O
- IC50: 10.7 nM

B2: [N-terminal(C20 diacid-gGlu), 4Q, 9V, 15Q, 21Q, 23Y, 27G, 30S, 31G, 32T, 33Y]mimylin (peptide)
peptide: {C20 diacid-γGlu}-EASQLSTAVLGRLSQELHELQTYPRTGTGSGTY-NH2
SMILES: CC(C)C[C@H](NC(=O)[C@H](CCCNC(=N)N)NC(=O)CNC(=O)[C@H](CC(C)C)NC(=O)[C@@H](NC(=O)[C@H](C)NC(=O)[C@@H](NC(=O)[C@H](CO)NC(=O)[C@H](CC(C)C)NC(=O)[C@H](CCC(N)=O)NC(=O)[C@H](CO)NC(=O)[C@H](C)NC(=O)[C@H](CCC(=O)O)NC(=O)CC[C@H](NC(=O)CCCCCCCCCCCCCCCCCCC(=O)O)C(=O)O)[C@@H](C)O)C(C)C)C(=O)N[C@@H](CO)C(=O)N[C@@H](CCC(N)=O)C(=O)N[C@@H](CCC(=O)O)C(=O)N[C@@H](CC(C)C)C(=O)N[C@@H](Cc1c[nH]cn1)C(=O)N[C@@H](CCC(=O)O)C(=O)N[C@@H](CC(C)C)C(=O)N[C@@H](CCC(N)=O)C(=O)N[C@H](C(=O)N[C@@H](Cc1ccc(O)cc1)C(=O)N1CCC[C@H]1C(=O)N[C@@H](CCCNC(=N)N)C(=O)N[C@H](C(=O)NCC(=O)N[C@H](C(=O)NCC(=O)N[C@@H](CO)C(=O)NCC(=O)N[C@H](C(=O)N[C@@H](Cc1ccc(O)cc1)C(N)=O)[C@@H](C)O)[C@@H](C)O)[C@@H](C)O)[C@@H](C)O
- IC50: 0.338 nM

B3: [N-terminal(C20 diacid-gGlu), des1, 2L, 4G, 9V, 21S, 23Y, 30S, 31G, 32T, 33Y]mimylin (peptide)
peptide: {C20 diacid-γGlu}-LSGLSTAVLGRLSAELHELSTYPRTETGSGTY-NH2
SMILES: CC(C)C[C@H](NC(=O)CC[C@H](NC(=O)CCCCCCCCCCCCCCCCCCC(=O)O)C(=O)O)C(=O)N[C@@H](CO)C(=O)NCC(=O)N[C@@H](CC(C)C)C(=O)N[C@@H](CO)C(=O)N[C@H](C(=O)N[C@@H](C)C(=O)N[C@H](C(=O)N[C@@H](CC(C)C)C(=O)NCC(=O)N[C@@H](CCCNC(=N)N)C(=O)N[C@@H](CC(C)C)C(=O)N[C@@H](CO)C(=O)N[C@@H](C)C(=O)N[C@@H](CCC(=O)O)C(=O)N[C@@H](CC(C)C)C(=O)N[C@@H](Cc1c[nH]cn1)C(=O)N[C@@H](CCC(=O)O)C(=O)N[C@@H](CC(C)C)C(=O)N[C@@H](CO)C(=O)N[C@H](C(=O)N[C@@H](Cc1ccc(O)cc1)C(=O)N1CCC[C@H]1C(=O)N[C@@H](CCCNC(=N)N)C(=O)N[C@H](C(=O)N[C@@H](CCC(=O)O)C(=O)N[C@H](C(=O)NCC(=O)N[C@@H](CO)C(=O)NCC(=O)N[C@H](C(=O)N[C@@H](Cc1ccc(O)cc1)C(N)=O)[C@@H](C)O)[C@@H](C)O)[C@@H](C)O)[C@@H](C)O)C(C)C)[C@@H](C)O
- IC50: 11.8 nM

B4: [N-terminal(C20 diacid-gGlu), 2L, 4G, 8L, 9V, 15Q, 21Q, 23Y, 27G, 30S, 31G, 32T, 33Y]mimylin (peptide)
peptide: {C20 diacid-γGlu}-ELSGLSTLVLGRLSQELHELQTYPRTGTGSGTY-NH2
SMILES: CC(C)C[C@H](NC(=O)CNC(=O)[C@H](CO)NC(=O)[C@H](CC(C)C)NC(=O)[C@H](CCC(=O)O)NC(=O)CC[C@H](NC(=O)CCCCCCCCCCCCCCCCCCC(=O)O)C(=O)O)C(=O)N[C@@H](CO)C(=O)N[C@H](C(=O)N[C@@H](CC(C)C)C(=O)N[C@H](C(=O)N[C@@H](CC(C)C)C(=O)NCC(=O)N[C@@H](CCCNC(=N)N)C(=O)N[C@@H](CC(C)C)C(=O)N[C@@H](CO)C(=O)N[C@@H](CCC(N)=O)C(=O)N[C@@H](CCC(=O)O)C(=O)N[C@@H](CC(C)C)C(=O)N[C@@H](Cc1c[nH]cn1)C(=O)N[C@@H](CCC(=O)O)C(=O)N[C@@H](CC(C)C)C(=O)N[C@@H](CCC(N)=O)C(=O)N[C@H](C(=O)N[C@@H](Cc1ccc(O)cc1)C(=O)N1CCC[C@H]1C(=O)N[C@@H](CCCNC(=N)N)C(=O)N[C@H](C(=O)NCC(=O)N[C@H](C(=O)NCC(=O)N[C@@H](CO)C(=O)NCC(=O)N[C@H](C(=O)N[C@@H](Cc1ccc(O)cc1)C(N)=O)[C@@H](C)O)[C@@H](C)O)[C@@H](C)O)[C@@H](C)O)C(C)C)[C@@H](C)O
- IC50: 2.56 nM

Binder: {C20 diacid-γGlu}-ASGLSTATLGRLSQELHELQTYPRTETGSGTY-NH2 [[N-terminal(C20 diacid-gGlu), des1, 4G, 9T, 15Q, 21Q, 23Y, 30S, 31G, 32T, 33Y]mimylin]
- IC50: 0.079 nM

Binder: EASELSTAALGRLSAELHELATLPRTETGPESP-OH [[C-terminal(-)]mimylin]
- IC50: 294 nM

Binder: {C18 diacid}-EASELSTAALGRLSAELHELATLPRTETGPESP-OH [[N-terminal(C18 diacid), C-terminal(-)]mimylin]
- IC50: 298 nM

The remaining lines, values ahead:

- IC50: 71.4 nM
Binder: ASELTTAVLGRLEAELHELTTLPRTETGTGTP-NH2 [[des1, 6T, 9V, 14E, 21T, 30T, 31G, 32T]mimylin]

- IC50: 0.431 nM
B5: [N-terminal(C20 diacid-gGlu), des1, 4G, 15T, 21E, 23Y, 30S, 31G, 32T, 33Y]mimylin (peptide)
peptide: {C20 diacid-γGlu}-ASGLSTAALGRLSTELHELETYPRTETGSGTY-NH2
SMILES: CC(C)C[C@H](NC(=O)CNC(=O)[C@H](CO)NC(=O)[C@H](C)NC(=O)CC[C@H](NC(=O)CCCCCCCCCCCCCCCCCCC(=O)O)C(=O)O)C(=O)N[C@@H](CO)C(=O)N[C@H](C(=O)N[C@@H](C)C(=O)N[C@@H](C)C(=O)N[C@@H](CC(C)C)C(=O)NCC(=O)N[C@@H](CCCNC(=N)N)C(=O)N[C@@H](CC(C)C)C(=O)N[C@@H](CO)C(=O)N[C@H](C(=O)N[C@@H](CCC(=O)O)C(=O)N[C@@H](CC(C)C)C(=O)N[C@@H](Cc1c[nH]cn1)C(=O)N[C@@H](CCC(=O)O)C(=O)N[C@@H](CC(C)C)C(=O)N[C@@H](CCC(=O)O)C(=O)N[C@H](C(=O)N[C@@H](Cc1ccc(O)cc1)C(=O)N1CCC[C@H]1C(=O)N[C@@H](CCCNC(=N)N)C(=O)N[C@H](C(=O)N[C@@H](CCC(=O)O)C(=O)N[C@H](C(=O)NCC(=O)N[C@@H](CO)C(=O)NCC(=O)N[C@H](C(=O)N[C@@H](Cc1ccc(O)cc1)C(N)=O)[C@@H](C)O)[C@@H](C)O)[C@@H](C)O)[C@@H](C)O)[C@@H](C)O)[C@@H](C)O

- IC50: 0.244 nM
B6: [N-terminal(C20 diacid-gGlu), des1, 4G, 9V, 15Q, 21Q, 23Y, 30S, 31A, 32T, 33Y]mimylin (peptide)
peptide: {C20 diacid-γGlu}-ASGLSTAVLGRLSQELHELQTYPRTETGSATY-NH2
SMILES: CC(C)C[C@H](NC(=O)CNC(=O)[C@H](CO)NC(=O)[C@H](C)NC(=O)CC[C@H](NC(=O)CCCCCCCCCCCCCCCCCCC(=O)O)C(=O)O)C(=O)N[C@@H](CO)C(=O)N[C@H](C(=O)N[C@@H](C)C(=O)N[C@H](C(=O)N[C@@H](CC(C)C)C(=O)NCC(=O)N[C@@H](CCCNC(=N)N)C(=O)N[C@@H](CC(C)C)C(=O)N[C@@H](CO)C(=O)N[C@@H](CCC(N)=O)C(=O)N[C@@H](CCC(=O)O)C(=O)N[C@@H](CC(C)C)C(=O)N[C@@H](Cc1c[nH]cn1)C(=O)N[C@@H](CCC(=O)O)C(=O)N[C@@H](CC(C)C)C(=O)N[C@@H](CCC(N)=O)C(=O)N[C@H](C(=O)N[C@@H](Cc1ccc(O)cc1)C(=O)N1CCC[C@H]1C(=O)N[C@@H](CCCNC(=N)N)C(=O)N[C@H](C(=O)N[C@@H](CCC(=O)O)C(=O)N[C@H](C(=O)NCC(=O)N[C@@H](CO)C(=O)N[C@@H](C)C(=O)N[C@H](C(=O)N[C@@H](Cc1ccc(O)cc1)C(N)=O)[C@@H](C)O)[C@@H](C)O)[C@@H](C)O)[C@@H](C)O)C(C)C)[C@@H](C)O

- IC50: 20.2 nM
Binder: ASELTTAVLGRLSAELHELATLPRTETGTGTP-NH2 [[des1, 6T, 9V, 30T, 31G, 32T]mimylin]

- IC50: 1.18 nM
Binder: LSGLSTAVLGRLSQELHELQTYPRTETGSQTY-NH2 [[des1, 2L, 4G, 9V, 15Q, 21Q, 23Y, 30S, 31Q, 32T, 33Y]mimylin]

- IC50: 0.982 nM
Binder: ASEVSTAVLGRLSAELHELATLPRTETGSGSP-NH2 [[des1, 5V, 9V, 30S, 31G]mimylin]

- IC50: 5.1 nM
Binder: ASELSTAALGHLSAELHELATLPRTETGSGSP-NH2 [[des1, 12H, 30S, 31G]mimylin]
